Consider three substances from PMC4609183.

The target of this test is R0RBR parkin (residues 141–465, lacking Ubl domain and linker) (human) (UniProt O60260). The test is described as follows: ITC; 50 μM R0RBR, full-length parkin or phosphoparkin titrated with Ub, Ubl or their variants; 25°C; 50 mM HEPES, 50 mM NaCl, 250 μM TCEP pH 7.5 or 50 mM HEPES, 150 mM NaCl, 0.5 mM TCEP pH 8.0; single-site model.
Usually Kd stands for the constant that tells how readily two partners part at equilibrium. A word on the stoichiometry N: it is a count of units in the complex or per binding partner. “parkin Ubl domain S65D (from UniProt O60260 144-465) (domain or fragment)” had a Kd of 5 µM, a dH of -9.08 kcal/mol and a stoichiometry N of 1.03.
In the same order, the values of “parkin Ubl domain S65E (domain or fragment)” are 5.3 µM, -11 kcal/mol and 0.98.
In the same order, the values of “phosphorylated parkin Ubl domain (domain or fragment)” are 26 µM, -3.82 kcal/mol and 1.04.
